This note sets out measurements from article PMC6044717 (ACS Omega, 2018).

pIC50, pKd, pKi: −log10 of the molar value.

One data set is described as follows: Solubility in water. In kind it is physicochemical. The conditions noted are these: physiological pH and temperature.
Data set [1] concerns the target fluorescein isothiocyanate (FITC)-conjugated GRGDSP peptide. Description: fluorescence polarisation. (Polarisation of emitted light reports the rotation of a fluorescent probe.)
In data set [2] the target is Human recombinant integrin α5β1 (human) (UniProt P08648). Description: fluorescence polarisation.

Turning to `O=C(N[C@@H](Cc1ccccc1)C(=O)O)OCC1c2ccccc2-c2ccccc21` [Fmoc-F], in “Solubility in water”, the solubility in water entry is reported as “not readily soluble”.

Consider “Human recombinant integrin α5β1 (from UniProt P08648 42-1049; P05556 21-728) (complex)”, for which, in data set [1], the pKd – broadly, the negative decadic logarithm of the Kd, by convention in mol/L – is 6.68.

For “arginine–glycine–aspartic acid tripeptide (RGD)”, in data set [2], the pIC50 (usually the negative decadic logarithm of the IC50, by convention in mol/L) is 4.57 and the pKi – broadly, the negative decadic logarithm of the Ki, by convention in mol/L – is 4.97.

Regarding “depsipeptide R-Glc-D (arginine–glycolic acid–aspartic acid)”, in data set [2], the pIC50 is 2.95 and the pKi is 3.34.
